According to the supplement of paper PMC12855868:

B1: library; numbered along this chain (parent)
chain: MAAAGGARLLRAASAVLGGPAGRWLHHAGSRAGSSGLLRNRGPGGSAEASRSLSVSARARSSSEDKITVHFINRDGETLTTKGKVGDSLLDVVVENNLDIDGFGACEGTLACSTCHLIFEDHIYEKLDAITDEENDMLDLAYGLTDRSRLGCQICLTKSMDNMTVRVPETVADARQSIDVGKTS

Variants of: B1
Experiment: scaled log2 fold change in cell abundance, elesclomol vs control (0 = silent mean, 1 = nonsense mean) (scaled log2 ratio); higher = higher viability under elesclomol (loss of FDX1 cuproptosis function)
Details: glucose 10 mM
Description: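 Deep mutational scan of full-length human FDX1: a pooled saturation-mutagenesis ORF library (every residue 2-184 mutated to all 19 amino acids plus stop, and silent codons where available) was expressed by lentivirus in FDX1-knockout ABC1 (14 days) or HEK293T (11 days) cells grown with elesclomol (ES) or DMSO control. Variant abundance came from ORF sequencing. The log2 fold change (ES vs control, mean of duplicates) was centred on the silent-variant mean (0) and scaled to the nonsense-variant mean (1). Higher values mean greater viability under ES, i.e. loss of FDX1 function in cuproptosis.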

[1] = with ABC1 FDX1 KO, elesclomol 5 nM, 14 days
[2] = with HEK293T FDX1 KO, elesclomol 40 nM, 11 days
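Note: variant abundance is its share of total variant reads in each endpoint sample, from next-generation sequencing of the integrated ORF PCR-amplified out of genomic DNA.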

| Variant | scaled log2 fold change [1] | scaled log2 fold change [2] |
| --- | --- | --- |
| L25E | -0.135 | -0.0782 |
| L25Q | -0.0213 | -1.08 |
| L25W | 0.28 | 0.019 |
| L25G | -0.623 |  |
| L25T | 0.536 |  |
| L25M | 0.607 | 1.17 |
| L25Y | 0.423 | 0.926 |
| L25A | -0.505 |  |
| L25H | 0.124 | -0.423 |
| L25D | -0.703 |  |
| L25K | 0.14 | 1.29 |
| G18W | -0.00826 | -0.224 |
| G18Y | 0.0736 | 0.324 |
| G18F | 0.00932 | 0.79 |
| G18M | 0.0948 | 0.156 |
| G18H | 0.0847 | -0.242 |
| G18S | 0.392 | 0.921 |
| G18N | 0.408 | 0.649 |
| G18R | 0.241 | -0.618 |
| G18K | 0.322 | 0.179 |
| G18E | -0.165 | -0.152 |
| G18T | 0.225 | 0.0755 |
| G18P | 0.0386 |  |
| G18A | -0.164 | 0.946 |
| G18V | 0.494 | -0.0846 |
| G18D | -0.233 | 0.58 |

| Variant | scaled log2 fold change [1] | scaled log2 fold change [2] |
| --- | --- | --- |
| G18C | 0.14 | 0.923 |
| G18L | -0.655 | 0.123 |
| G18Q | -0.43 | 0.977 |
| G18I | 0.0859 | -0.0341 |
| H26A | 0.684 | 1.75 |
| H26M | 0.23 |  |
| H26F | 0.206 | -0.237 |
| H26Y | 0.147 | -0.00505 |
| H26N | 0.169 | -0.198 |
| H26L | 0.346 | 0.304 |
| H26C | -0.0138 |  |
| H26D | 0.267 | 0.193 |
| H26E | 0.356 | 0.955 |
| H26Q | 0.0786 | 1.39 |
| H26P | -0.00391 |  |
| H26G | -0.196 | -0.699 |
| H26T | 0.206 | 0.037 |
| H26R | -0.169 | -0.571 |
| H26W | 0.101 | -0.281 |
| H26K | 0.352 |  |
| H26S | 0.241 |  |
| P20S | -0.324 |  |
| P20Y | 0.0978 | 0.987 |
| P20H | -0.216 | 0.0304 |
| P20N | -0.129 |  |
| P20W | -0.19 | -0.657 |

| Variant | scaled log2 fold change [1] | scaled log2 fold change [2] |
| --- | --- | --- |
| P20G | 0.37 |  |
| P20K | 0.251 |  |
| P20Q | -0.5 | 1.13 |
| P20M | -0.56 |  |
| P20D | -0.0903 |  |
| P20T | 0.221 |  |
| P20C | 0.163 | -0.287 |
| P20I | 0.419 | 0.171 |
| P20L | 0.585 | -0.772 |
| P20A | -0.601 | 0.0404 |
| P20E | 0.162 | 1.08 |
| P20F | -0.201 |  |
| R23W | 0.348 | 0.553 |
| R23Y | -0.603 |  |
| R23M | 0.474 | -0.139 |
| R23Q | 0.00392 |  |
| R23P | -0.138 | 0.465 |
| R23C | 0.413 | 0.458 |
| R23N | 0.598 | -0.335 |
| R23K | 0.498 |  |
| R23E | 0.00775 |  |
| R23T | -0.164 | -0.141 |
| R23I | 0.309 |  |
| R23D | 0.199 |  |
| R23S | -0.477 |  |
| A21K | -0.827 |  |

| Variant | scaled log2 fold change [1] | scaled log2 fold change [2] |
| --- | --- | --- |
| A21T | -0.223 | -0.058 |
| A21R | -0.644 | -0.0217 |
| A21Y | -0.187 |  |
| A21D | 0.168 | -0.0523 |
| A21N | -0.1 | -0.618 |
| A21P | 0.0803 |  |
| A21S | 0.463 | -0.189 |
| A21F | -0.268 | 0.113 |
| A21V | 0.197 |  |
| A21Q | -0.931 | 0.318 |
| A21H | -0.455 | -0.00969 |
| A21G | 0.106 | -0.283 |
| A21I | 0.0825 | 0.0632 |
| A21M | -0.216 | -0.139 |
| A21L | 0.235 | 0.118 |
| A21E | -0.0483 | -0.444 |
| A21C | -0.145 | -0.0664 |
| L17P | -0.107 |  |
| L17F | -0.361 | 0.252 |
| L17Q | -0.0277 | -0.517 |
| L17W | 0.321 | -0.126 |
| L17A | -0.194 |  |
| L17I | -0.552 | -0.833 |
| L17H | -0.27 | -0.167 |
| L17N | 0.306 |  |
| L17R | -0.051 | 0.603 |

| Variant | scaled log2 fold change [1] | scaled log2 fold change [2] |
| --- | --- | --- |
| L17S | 0.386 | 0.458 |
| L17C | 0.0553 | 0.966 |
| L17V | -0.232 |  |
| L17T | 0.262 | -0.223 |
| L17M | 0.05 | 0.0514 |
| L17G | 0.217 | -0.178 |
| L17Y | -0.147 | 0.613 |
| L17E | 0.227 |  |
| L17K | -0.392 | -0.386 |
| L17D | 0.342 | 0.653 |
| G29P | -0.415 | -0.6 |
| G29D | 0.238 |  |
| G29Y | -0.628 |  |
| G29M | -0.124 | -0.568 |
| G29K | -0.417 | 1.26 |
| G29W | 0.42 | 0.76 |
| G29T | -0.284 | -0.357 |
| G29V | -0.87 |  |
| G29F | -0.118 | -0.149 |
| G29E | 0.324 | 0.361 |
| G29I | 0.147 | -1.13 |
| G29S | 0.00542 | -0.441 |
| G29R | -0.244 | -0.0867 |
| G29C | 0.0521 | -0.731 |
